Source: paper PMC8983318, “Deciphering the structure of Arabidopsis thaliana 5-enol-pyruvyl-shikimate-3-phosphate synthase: An essential step toward the discovery of novel inhibitors to supersede glyphosate” (Computational and Structural Biotechnology Journal, 2022)

T1: 5-enol-pyruvyl-shikimate-3-phosphate synthase (AtEPSPS) (Arabidopsis thaliana, UniProt P05466)
T1 construct: gene At2g45300; residues 77-520 (starts from Lys77, preceded by Ser-Asn-Ala)
T1 sequence (P05466 77-520): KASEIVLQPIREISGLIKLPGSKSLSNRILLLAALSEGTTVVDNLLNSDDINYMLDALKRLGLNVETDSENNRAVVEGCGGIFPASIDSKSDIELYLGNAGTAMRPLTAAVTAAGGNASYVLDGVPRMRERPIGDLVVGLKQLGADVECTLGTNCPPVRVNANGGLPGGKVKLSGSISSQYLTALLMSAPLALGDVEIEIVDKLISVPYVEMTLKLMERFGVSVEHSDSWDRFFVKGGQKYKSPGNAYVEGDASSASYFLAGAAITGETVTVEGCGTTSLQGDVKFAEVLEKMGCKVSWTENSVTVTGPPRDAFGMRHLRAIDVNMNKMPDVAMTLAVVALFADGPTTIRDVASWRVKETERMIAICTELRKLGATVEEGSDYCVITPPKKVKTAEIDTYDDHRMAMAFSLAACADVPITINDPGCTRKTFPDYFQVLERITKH


Experiments:
[1] = target: T1, 5-enol-pyruvyl-shikimate-3-phosphate synthase (AtEPSPS); test: malachite green phosphate-release assay, Lineweaver-Burk analysis (Ki vs PEP about […]; Ki vs S3P about […]; IC50 about […]); format: biochemical
purified protein = substrate: C=C(OP(=O)(O)O)C(=O)O; test: purified protein; settings: glyphosate is competitive with respect to PEP
[2] = substrate: O=C(O)C1=C[C@@H](OP(=O)(O)O)[C@@H](O)[C@H](O)C1; test: steady-state kinetics of the purified enzyme, KM(app), malachite green assay; format: biochemical, Arabidopsis thaliana

Molecule | Ki [1] | Km (purified protein) | Km [2]
O=C(O)CNCP(=O)(O)O [glyphosate, N-[phosphonomethyl]glycine] | ~1000 nM | – | –
5-enol-pyruvyl-shikimate-3-phosphate synthase (AtEPSPS) (Arabidopsis thaliana) (protein, residues 77-520 (starts from Lys77, preceded by Ser-Asn-Ala)) KASEIVLQPIREISGLIKLPGSKSLSNRILLLAALSEGTTVVDNLLNSDDINYMLDALKRLGLNVETDSENNRAVVEGCGGIFPASIDSKSDIELYLGNAGTAMRPLTAAVTAAGGNASYVLDGVPRMRERPIGDLVVGLKQLGADVECTLGTNCPPVRVNANGGLPGGKVKLSGSISSQYLTALLMSAPLALGDVEIEIVDKLISVPYVEMTLKLMERFGVSVEHSDSWDRFFVKGGQKYKSPGNAYVEGDASSASYFLAGAAITGETVTVEGCGTTSLQGDVKFAEVLEKMGCKVSWTENSVTVTGPPRDAFGMRHLRAIDVNMNKMPDVAMTLAVVALFADGPTTIRDVASWRVKETERMIAICTELRKLGATVEEGSDYCVITPPKKVKTAEIDTYDDHRMAMAFSLAACADVPITINDPGCTRKTFPDYFQVLERITKH | – | 185 µM | 200 µM
